Source: patent publication US9120865B2, “T cell epitopes of the Cyn d 1 allergen from bermuda grass pollen” (Circassia Limited, priority 2001, dated 2015)

Legend:
[1] = test system: oligoclonal T cell blasts from Bermuda grass pollen-specific T cell lines; experiment: Oligoclonal T cell proliferation assay (3HTdR incorporation); assay type: cell-based, human; settings: for number of patients in whom the peptide elicited proliferation: 13 Cyn d 1-reactive patients, SI≧2.5 considered significant
From the text: Bermuda grass pollen-specific T cell lines were isolated with the use of our well-established methods for thegeneration of allergen-specific T cell populations (O'Hehir, R. E., Young, D. B., Kay, A. B., Lamb, J. R., Immunology, 62:635-640, 1987; O'Hehir, R. E., Askonas, B. A., Lamb, J. R., Vol 3, Heidelberg:Springer-Verlag, p 120-138, 1993). Briefly, PBMC were separated from heparinized venous blood by density gradient centrifugation over Ficoll Paque (Pharmacia, Sweden). PBMC were initially stimulated for 1 week in 24-well plates (Costar, USA; 2.5×10^6 PBMC/well) with a previously determined optimal concentration of Bermuda grass pollen extract (50 μg/ml) for 7 days in complete medium (RPMI-1640 medium, Gibco Life Technologies, supplemented with 2 mmol/L L-glutamine, 100 IU/ml penicillin/streptomycin, and 5% screened, heat inactivated human AB^+ serum, Sigma Chemical Company, USA) at 37° C., 5% CO2. A two week line was established by restimulating the T cell blasts with Bermuda grass pollen extract in the presence of irradiated (3000 rads) autologous PBMC every 7 days, with the addition of interleukin-2 (5% vol/vol; Lymphocult-TLF, Biotest Folex, Frankfurt, Germany) every 3-4 days. In all experiments, T cells were rested for 7 days after the last addition of antigen and antigen presenting cells (APC) before use in proliferation assays. We have previously shown that CD4+ T cells are preferentially expanded in these cultures.
Oligoclonal T cell blasts (5×10^4/well) from the Bermuda grass pollen-specific T cell lines were stimulated in triplicate with Bermuda grass pollen extract (25, 50, 100 μg/ml), purified Cyn d 1 (2.5, 5, 10 μg/ml) and the Cyn d 1 peptides (1, 10 μg/ml) in the presence of an equal number of irradiated autologous PBMC as APC for 72 hours in 96-well round bottom plates (ICN Biomedicals, USA). Cultures of T cells and APC in the absence of antigen or with added IL-2 were included as negative and positive controls respectively. After 72 hours, cultures were pulsed with 1 μCi/well of tritiated methyl thymidine (^3HTdR; Amersham, USA) and harvested 16 hours later onto glass fibre filters. Proliferation as correlated with ^3HTdR incorporation was measured by liquid scintillation spectroscopy. Results are expressed as change in mean counters per minute above background (Acpm) or as a stimulation index (SI, cpm of antigen stimulated T cells divided by cpm of unstimulated T cells) to allow easier comparison between subjects with different background incorporation. Stimulation index values ≧2.5 are considered significant. Production of IL-5 and IFN-γ by Bermuda grass pollen-specific oligoclonal T cells

IFN-γ = experiment: Production of IFN-γ by Bermuda grass pollen-specific oligoclonal T cells (sandwich ELISA of culture supernatants); assay type: cell-based, human; settings: pre-SIT; supernatants at 48 hours
Method: (§1) Production of IL-5 and IFN-γ by cultured oligoclonal T cells was assessed by harvesting supernatants from proliferation assays at 48 hours after stimulation, with replacement by an equal volume of complete medium, and measurement of cytokine levels by sandwich ELISA. White 96-well maxisorp ELISA plates (Nalgene NUNC, Denmark) were coated with rat anti-mouse/human IL-5 (PharMingen, USA) or mouse anti-human IFN-γ (endogen, USA) at 2 μg/ml and incubated overnight at 4° C. The plates were washed with 0.5% Tween 20/PBS and blocked with 1% BSA/PBS for 1 hour at room temperature. The plates were washed again and the culture supernatants from pooled triplicate assays added in duplicate to the wells. A standard curve was established using known concentrations of human recombinant IL-5 (PharMingen, USA) and IFN-γ (Endogen, USA). The plates were incubated with either 1 μg/ml biotinylated rat anti-human IL-5 (PharMingen, USA) or 0.5 μg/ml biotinylated mouse anti-human IFN-γ (Endogen, USA) for 1 hour at room temperature. After washing the plates, streptavidin-biotinylated horseradish peroxidase (Amersham, USA), at a dilution of 1:2000, was added to each well and incubated for 45 minutes at room temperature. […] The plates were read on a LumiCount microplate glow luminometer (Packard Instrument Company, USA). […]

[2] = test system: oligoclonal house dust mite-reactive CD4+ T cells; experiment: Mitogenicity check with irradiated PBMC; assay type: cell-based, human; settings: data not shown
Method: (§2) Antigens • (i) Bermuda grass pollen. • Bermuda grass pollen was purchased from Greer Laboratories Inc. (Lenoir, N.C., USA) as dry, non-defatted pollen. One gram of pollen was extracted in 5 ml of 1 mM NH4HCO3 overnight at 4° C. on a rotating wheel. After centrifugation, the supernatant was dialyzed against PBS overnight. The extract was filtered through a 0.2 μm filter. The protein content of the extract was determined using the Bio-Rad Microassay (Bio-Rad, USA). • (ii) Cyn d 1. • Cyn d 1 was generated by the Bermuda grass pollen extract first undergoing an 80% ammonium sulphate precipitation. […] The protein content was determined using the Bio-Rad Microas say. • (iii) Peptides. • Synthetic peptides (20-mers overlapping by 11 or, for the two N-terminal peptides, 15 residues) spanning the entire length of the Cyn d 1 molecule were purchased from Mimotopes (Clayton, Australia; FIG. 2) (CD1 isoform, Smith et al., 1996, supra). • (iv) Mitogenicity and Toxicity. • Mitogenicity of Bermuda grass pollen, Cyn d 1 and Cyn d 1 peptides was excluded by culturing with oligoclonal house dust mite-reactive CD4^+ T cells in the presence of irradiated peripheral blood mononuclear cells (PBMC), and toxicity was excluded by co-culture of antigens with the HDM-reactive T cells in the presence of IL-2 (data not shown).

IgE = settings: sera from Bermuda grass pollen-allergic patients; cited from earlier work
IL-5 = experiment: Production of IL-5 by Bermuda grass pollen-specific oligoclonal T cells (sandwich ELISA of culture supernatants); assay type: cell-based, human; settings: pre-SIT; supernatants at 48 hours
Method: as §1

HDM-reactive T cells = experiment: Toxicity check by co-culture of antigens in the presence of IL-2; assay type: cell-based, human; settings: data not shown
Method: as §2

EGGAHLVQDDVIPANWKPDT (human) [Cyn d 1(217-236), synthetic 20-mer peptide of Cyn d 1, residues 217-236]
number of patients in whom the peptide elicited proliferation ([1]; pre-immunotherapy): 8 patients

LVQDDVIPANWKPDTVYTSK (human) [Cyn d 1(222-241), synthetic 20-mer peptide of Cyn d 1, residues 222-241]
number of patients in whom the peptide elicited proliferation ([1]; pre-immunotherapy): 6 patients

MKSSWGAIWRIDPKKPLKGP (human) [Cyn d 1(190-209), synthetic 20-mer peptide of Cyn d 1, residues 190-209]
number of patients in whom the peptide elicited proliferation ([1]; pre-immunotherapy): 6 patients

PKDSDEFIPMKSSWGAIWRI (human) [Cyn d 1(181-200), synthetic 20-mer peptide of Cyn d 1, residues 181-200]
number of patients in whom the peptide elicited proliferation ([1]; pre-immunotherapy): 6 patients

SGKAFGAMAKKGQEDKLRKA (human) [Cyn d 1(109-128), synthetic 20-mer peptide of Cyn d 1, residues 109-128]
number of patients in whom the peptide elicited proliferation ([1]; pre-immunotherapy): 8 patients

B1: Cyn d 1: major allergen protein of Bermuda grass pollen, purified from the pollen extract by ammonium sulphate precipitation and G-75 Sephadex (protein)
chain: AIGDKPGPNITATYGNKWLEAKATFYGSNPRGAAPDDHGGACGYKDVDKPPFDGMTACGNEPIFKDGLGCGACYEIKCKEPVECSGEPVLVKITDKNYEHIAAYHFDLSGKAFGAMAKKGQEDKLRKAGELTLQFRRVKCKYPSGTKITFHIEKGSNDHYLALLVKYAAGDGNIVAVDIKPKDSDEFIPMKSSWGAIWRIDPKKPLKGPFSIRLTSEGGAHLVQDDVIPANWKPDTVYTSKLQFGA
modifications: human
notes: major allergen protein of Bermuda grass pollen, purified from the pollen extract by ammonium sulphate precipitation and G-75 Sephadex
IFN-γ secreted in response to stimulation (IFN-γ): High levels | Mitogenicity [2]: excluded | change in proliferative responses / recognition ([1]; following SIT): marked decrease | patients with decreased proliferation ([1]; following one year of SIT): 11/13 | patients whose Bermuda grass pollen-specific T cell lines showed proliferative T cell responses ([1]; pre-immunotherapy, 2-week T cell lines from 14 patients): 13/14 | predominant humoral recognition (IgE): > 76% | IL-5 secreted in response to stimulation (IL-5): High levels | toxicity (HDM-reactive T cells): excluded
